Results: patent US6696546

Tests used:
[1] = tested on: 8-mer PAP CRM-derived peptide (SKIRILVG)
[2] = tested on: 8-mer peptide of scrambled sequence (LRSGIKVI)
[3] = target: bacterial produced, purified his-PAP I (UniProt P25500)
Chain of bacterial produced, purified his-PAP I (P25500 other isoform, or with tags, fused parts or gaps): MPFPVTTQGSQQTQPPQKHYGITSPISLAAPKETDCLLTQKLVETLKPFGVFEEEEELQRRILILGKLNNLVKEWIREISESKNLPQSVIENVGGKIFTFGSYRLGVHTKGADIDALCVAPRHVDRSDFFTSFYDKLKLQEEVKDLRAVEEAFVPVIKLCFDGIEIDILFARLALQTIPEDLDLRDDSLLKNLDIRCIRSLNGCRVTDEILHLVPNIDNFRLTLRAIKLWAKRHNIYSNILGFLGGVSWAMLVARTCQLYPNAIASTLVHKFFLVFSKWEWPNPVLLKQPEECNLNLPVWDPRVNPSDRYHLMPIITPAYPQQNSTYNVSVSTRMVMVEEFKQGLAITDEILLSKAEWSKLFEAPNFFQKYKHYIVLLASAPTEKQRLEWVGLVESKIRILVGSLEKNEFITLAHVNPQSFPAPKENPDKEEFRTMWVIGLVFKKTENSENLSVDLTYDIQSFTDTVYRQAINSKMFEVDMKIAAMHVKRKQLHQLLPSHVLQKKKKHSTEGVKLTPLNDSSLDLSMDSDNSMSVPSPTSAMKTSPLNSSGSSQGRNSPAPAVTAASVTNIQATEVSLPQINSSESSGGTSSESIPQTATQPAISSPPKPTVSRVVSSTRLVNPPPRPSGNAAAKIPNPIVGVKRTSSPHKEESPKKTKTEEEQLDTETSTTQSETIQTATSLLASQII

Row | Substance | pRB phosphorylation by cyclin A/cdk2 (in vitro kinase assay, 32P, autoradiography; peptide at 9 µM and 18 µM) [1] | pRB phosphorylation by cyclin A/cdk2 (in vitro kinase assay, 32P; peptide at 9 µM and 18 µM) [2] | 32P incorporation into PAP (in vitro kinase assay, autoradiography) [3] | pRB phosphorylation by cyclin B1/cdc2 (in vitro kinase assay, 32P; peptide at 18 µM) [1]
1 | human cyclin A/flu-tagged cdk2 | PAP's CRM effectively inhibited pRB phosphorylation by cyclin A/cdk2 (lanes 2 and 3) | a peptide with PAP's CRM scrambled was also tested, and it showed no effect on pRB phosphorylation (lanes 4 and 5) | 32P was efficiently incorporated into PAP | 
2 | human cyclin B1/flu epitope-tagged p34cdc2 |  |  |  | PAP's CRM also strongly and specifically inhibited phosphorylation of pRB by cyclin B1/cdc2
